This note sets out measurements from PMC2949612, “The effects of oligomerization on Saccharomyces cerevisiae Mcm4/6/7 function” (BMC Biochemistry, 2010).

The labels stand for the following.
B1: Mcm4^R701A (natural protein, S. cerevisiae, UniProt P30665 1-933, looked up)
chain: MSQQSSSPTKEDNNSSSPVVPNPDSVPPQLSSPALFYSSSSSQGDIYGRNNSQNLSQGEGNIRAAIGSSPLNFPSSSQRQNSDVFQSQGRQGRIRSSASASGRSRYHSDLRSDRALPTSSSSLGRNGQNRVHMRRNDIHTSDLSSPRRIVDFDTRSGVNTLDTSSSSAPPSEASEPLRIIWGTNVSIQECTTNFRNFLMSFKYKFRKILDEREEFINNTTDEELYYIKQLNEMRELGTSNLNLDARNLLAYKQTEDLYHQLLNYPQEVISIMDQTIKDCMVSLIVDNNLDYDLDEIETKFYKVRPYNVGSCKGMRELNPNDIDKLINLKGLVLRSTPVIPDMKVAFFKCNVCDHTMAVEIDRGVIQEPARCERIDCNEPNSMSLIHNRCSFADKQVIKLQETPDFVPDGQTPHSISLCVYDELVDSCRAGDRIEVTGTFRSIPIRANSRQRVLKSLYKTYVDVVHVKKVSDKRLDVDTSTIEQELMQNKVDHNEVEEVRQITDQDLAKIREVAAREDLYSLLARSIAPSIYELEDVKKGILLQLFGGTNKTFTKGGRYRGDINILLCGDPSTSKSQILQYVHKITPRGVYTSGKGSSAVGLTAYITRDVDTKQLVLESGALVLSDGGVCCIDEFDKMSDSTRSVLHEVMEQQTISIAKAGIITTLNARSSILASANPIGSRYNPNLPVTENIDLPPPLLSAFDLVYLVLDKVDEKNDRELAKHLTNLYLEDKPEHISQDDVLPVEFLTMYISYAKEHIHPIITEAAKTELVRAYVGMRKMGDDSRSDEKRITATTRQLESMIRLAEAHAKMKLKNVVELEDVQEAVRLIRSAIKDYATDPKTGKIDMNLVQTGKSVIQRKLQEDLSREIMNVLKDQASDSMSFNELIKQINEHSQDRVESSDIQEALSRLQQEDKVIVLGEGVRRSVRLNNRV
notes: Mcm4, S. cerevisiae; entire MCM4 ORF with the SRF arginine R701 changed to alanine; Purification of the mutant is not described separately; also called 4^RA; Mcm4^RA; source: purified

What all share (conditions): both partners purified
Assay [1] concerns the target T1, Mcm6 (S. cerevisiae, UniProt P53091 1-1017).
T1 construct: Mcm6, S. cerevisiae; also called minichromosome maintenance protein 6
Kind of assay: SEC; 5.2 nmol each subunit mixed, 5 mg/ml, 16°C 30 min; Superose 6 10/300 GL, 20 mM Tris-HCl pH 7.5, 0.1 mM EDTA, 2 mM DTT, 100 mM NaCl, 10% glycerol; no nucleotide.

Assay [2] concerns the target T2, Mcm4 (S. cerevisiae, UniProt P30665 1-933).
T2 construct: Mcm4, S. cerevisiae; the entire MCM4 ORF stands on pET11a-MCM4; also called minichromosome maintenance protein 4; source: purified (ammonium sulphate, SP Sepharose, heparin agarose, ssDNA Sepharose, Mono S)
T2 sequence (looked up): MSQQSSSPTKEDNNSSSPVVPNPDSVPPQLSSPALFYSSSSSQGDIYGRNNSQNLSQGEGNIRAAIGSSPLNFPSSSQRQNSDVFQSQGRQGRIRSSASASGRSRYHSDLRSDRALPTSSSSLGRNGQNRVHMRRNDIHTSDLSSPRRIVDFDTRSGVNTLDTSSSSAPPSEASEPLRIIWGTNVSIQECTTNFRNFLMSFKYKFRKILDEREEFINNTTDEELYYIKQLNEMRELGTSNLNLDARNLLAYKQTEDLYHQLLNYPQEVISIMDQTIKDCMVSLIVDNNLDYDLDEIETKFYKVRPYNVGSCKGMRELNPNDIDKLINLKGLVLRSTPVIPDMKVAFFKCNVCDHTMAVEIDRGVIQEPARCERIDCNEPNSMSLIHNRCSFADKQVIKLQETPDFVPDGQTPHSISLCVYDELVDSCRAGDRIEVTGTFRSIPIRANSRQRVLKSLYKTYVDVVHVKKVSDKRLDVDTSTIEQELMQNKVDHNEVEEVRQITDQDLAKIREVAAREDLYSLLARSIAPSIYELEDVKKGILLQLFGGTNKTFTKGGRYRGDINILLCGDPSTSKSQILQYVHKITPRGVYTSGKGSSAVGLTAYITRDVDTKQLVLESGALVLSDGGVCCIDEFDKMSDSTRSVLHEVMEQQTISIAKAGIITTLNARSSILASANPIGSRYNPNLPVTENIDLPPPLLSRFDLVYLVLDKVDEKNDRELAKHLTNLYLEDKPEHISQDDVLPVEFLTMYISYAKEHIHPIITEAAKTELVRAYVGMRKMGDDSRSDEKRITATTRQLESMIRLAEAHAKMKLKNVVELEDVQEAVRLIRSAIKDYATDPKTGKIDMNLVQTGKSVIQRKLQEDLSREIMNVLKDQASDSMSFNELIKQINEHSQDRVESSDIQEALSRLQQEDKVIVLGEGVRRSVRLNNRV
Nature of the assay: cross-linking; glutaraldehyde, 9 ug Mcm4/6/7 in 20 mM HEPES NaOH pH 8.4, 10 mM magnesium acetate, no nucleotide; 16°C 30 min then 2 min 37°C; 3.5% SDS-phosphate gel.

The target in assay [3] is B1. Kind of assay: SEC; 5.2 nmol each subunit mixed, 5 mg/ml, 16°C 30 min; Superose 6 10/300 GL, 20 mM Tris-HCl pH 7.5, 0.1 mM EDTA, 2 mM DTT, 100 mM NaCl, 10% glycerol; no nucleotide.

T1 sequence (P53091 whole entry): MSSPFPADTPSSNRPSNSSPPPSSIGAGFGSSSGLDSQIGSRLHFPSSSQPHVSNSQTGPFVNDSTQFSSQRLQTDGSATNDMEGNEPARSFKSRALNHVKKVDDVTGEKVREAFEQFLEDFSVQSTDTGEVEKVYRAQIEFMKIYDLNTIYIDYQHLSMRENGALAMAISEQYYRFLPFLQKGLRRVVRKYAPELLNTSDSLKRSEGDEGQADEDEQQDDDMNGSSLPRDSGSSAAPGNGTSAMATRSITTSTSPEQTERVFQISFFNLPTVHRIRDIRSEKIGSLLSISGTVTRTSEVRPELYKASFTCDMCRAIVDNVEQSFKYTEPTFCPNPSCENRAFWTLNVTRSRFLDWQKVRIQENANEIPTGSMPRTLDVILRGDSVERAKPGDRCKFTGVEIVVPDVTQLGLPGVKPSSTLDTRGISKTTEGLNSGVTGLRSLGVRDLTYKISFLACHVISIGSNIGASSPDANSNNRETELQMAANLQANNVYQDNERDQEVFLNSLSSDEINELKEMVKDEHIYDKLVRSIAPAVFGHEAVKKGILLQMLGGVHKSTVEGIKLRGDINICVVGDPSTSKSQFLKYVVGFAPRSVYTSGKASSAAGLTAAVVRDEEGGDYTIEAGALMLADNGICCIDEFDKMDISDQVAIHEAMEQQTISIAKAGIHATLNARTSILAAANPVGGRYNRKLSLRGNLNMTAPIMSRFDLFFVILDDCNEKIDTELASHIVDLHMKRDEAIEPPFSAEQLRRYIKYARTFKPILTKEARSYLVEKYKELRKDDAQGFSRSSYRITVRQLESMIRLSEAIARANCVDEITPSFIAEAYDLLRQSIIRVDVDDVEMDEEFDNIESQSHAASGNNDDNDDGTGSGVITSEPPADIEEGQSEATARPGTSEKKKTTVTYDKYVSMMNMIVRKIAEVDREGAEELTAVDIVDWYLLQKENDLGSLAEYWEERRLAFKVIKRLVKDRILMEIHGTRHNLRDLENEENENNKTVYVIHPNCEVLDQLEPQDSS

B1: the binding result in assay [1] is “binds”.

B2: Mcm7 (natural protein, S. cerevisiae, UniProt P38132 1-845, looked up)
chain: MSAALPSIQLPVDYNNLFNEITDFLVTFKQDTLSSDATRNENEDENLDAENIEQHLLEKGPKYMAMLQKVANRELNSVIIDLDDILQYQNEKFLQGTQADDLVSAIQQNANHFTELFCRAIDNNMPLPTKEIDYKDDVLDVILNQRRLRNERMLSDRTNEIRSENLMDTTMDPPSSMNDALREVVEDETELFPPNLTRRYFLYFKPLSQNCARRYRKKAISSKPLSVRQIKGDFLGQLITVRGIITRVSDVKPAVEVIAYTCDQCGYEVFQEVNSRTFTPLSECTSEECSQNQTKGQLFMSTRASKFSAFQECKIQELSQQVPVGHIPRSLNIHVNGTLVRSLSPGDIVDVTGIFLPAPYTGFKALKAGLLTETYLEAQFVRQHKKKFASFSLTSDVEERVMELITSGDVYNRLAKSIAPEIYGNLDVKKALLLLLVGGVDKRVGDGMKIRGDINVCLMGDPGVAKSQLLKAICKISPRGVYTTGKGSSGVGLTAAVMKDPVTDEMILEGGALVLADNGICCIDEFDKMDESDRTAIHEVMEQQTISISKAGINTTLNARTSILAAANPLYGRYNPRLSPLDNINLPAALLSRFDILFLMLDIPSRDDDEKLAEHVTYVHMHNKQPDLDFTPVEPSKMREYIAYAKTKRPVMSEAVNDYVVQAYIRLRQDSKREMDSKFSFGQATPRTLLGIIRLSQALAKLRLADMVDIDDVEEALRLVRVSKESLYQETNKSKEDESPTTKIFTIIKKMLQETGKNTLSYENIVKTVRLRGFTMLQLSNCIQEYSYLNVWHLINEGNTLKFVDDGTMDTDQEDSLVSTPKLAPQTTASANVSAQDSDIDLQDA
notes: Mcm7, S. cerevisiae; also called minichromosome maintenance protein 7
As to B2, the binding result in assay [2] and in assay [3] was “binds” throughout.
